Consider two molecules from publication PMC6448830 (PLoS Pathogens, 2019).

Assay [1] has as its target T1, A. trivirgatus 2B4-Fc fusion protein (Aotus trivirgatus).
T1 construct: also called host 2B4-Fc; aoCD244-Fc
As to the kind of experiment: SPR. The note with it: both partners purified.

Assay [2] concerns the target T2, human 2B4-Fc fusion protein (human, UniProt Q9BZW8 22-229).
T2 construct: also called h2B4-Fc; h2B4
T2 sequence: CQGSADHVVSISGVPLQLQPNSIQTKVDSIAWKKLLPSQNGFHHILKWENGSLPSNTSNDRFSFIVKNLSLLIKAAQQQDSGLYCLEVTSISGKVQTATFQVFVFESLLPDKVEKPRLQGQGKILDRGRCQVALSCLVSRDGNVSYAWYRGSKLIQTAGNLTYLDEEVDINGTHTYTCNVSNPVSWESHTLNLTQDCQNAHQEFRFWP
The assay is described as follows: SPR. The note with it: both partners purified.

B1: A. trivirgatus CD48-Fc fusion protein (Fc fusion)
chain: TSIQGNSVDVINAISGGNVTLNISESLPENVREITWFCTYHQKIADWDVKRLKYFDNKFKGRVRLDYQSGALYISKIQKEDANIYIMRVLKETMYEQEWKIRLQVFDPVPKPDIKIEKTAKVEDDCYLKLSCVIPDESVNYTWYGDKEPFPKEFQSGVLETTLKSQDYSRCYTCQVSNPVSSKNDTVCFS
modifications: biotin (biotinylated host CD48-Fc in the blocking ELISA)
Take B1: in assay [1], the dissociation constant Kd came out at 3.3 nM.

B2: A43-Fc fusion protein (Fc fusion)
chain: VNIVNALVGGNITLNISESLPENVREITWFCTYDQKIADWDVKRLKYFDNKFKGRVRLDSQSGALYLSRVQKEDANIYIMRVLKDTMFEQDWKIRLQVFDEVDTPNITLVNTTLISDTCYVNFSCSHHDSLCYTSNENCTWYHFSQNITKTPPWNHSASSNSCYTCEFKNPVHRKNITMCISGCGQT
modifications: Wild-type viral ectodomain. The human IgG1 Fc carrier (dimerising) and CD33 leader are left out. The C-terminal limit follows from the printed membrane-proximal region 214-225, so Ig2 ends at …
As for B2, in assay [2], the affinity, expressed as Kd, was 3.6 nM; the “fold higher affinity than hCD48” value came to 6 fold; the “fold slower dissociation than hCD48” value was 55 fold; the koff was 0.000405 s⁻¹. In addition, in assay [2], the on-rate constant (kon) came to 169000 M⁻¹ s⁻¹. Moreover, in assay [1], binding was characterised by a dissociation constant (Kd) of 1.3 nM, the “fold slower dissociation than host CD48” value was determined as 2.6 fold, the off-rate constant (koff) is 0.000188 s⁻¹ and the on-rate (kon) was 116000 M⁻¹ s⁻¹.

As usually defined, the Kd is the free concentration of one partner at which half of the binding sites on the other are occupied at equilibrium, for simple one-to-one binding. The low end stands for tighter binding, the high end for weaker binding. What is called koff is the first-order rate constant of dissociation. A low value points to a long-lived complex. The term kon denotes the second-order rate constant of association. A higher kon goes with fast association.
